Assay results taken from PMC8342441.

Target: β-arrestin 2-Rluc (UniProt P32121)
Assay: BRET (β-arrestin 2 recruitment)
Conditions: point at the highest AngII dose, read off a plot
[1] = HEK293 cells, Log[AII] = -5 M, parent: est. 0.37
[2] = Log[AngII] = -4 M, parent: est. 0.086
[3] = HEK293 cells, left plot, Log[AII] = -5 M, parent: est. 0.36
[4] = HEK293 cells, right plot, Log[AII] = -5 M, parent: est. 0.35

YFP-tagged WT angiotensin II type 1 receptor (AT1 receptor) (from UniProt P30556) D2.50N
response [1]: 0.36 ΔBRET

YFP-tagged WT angiotensin II type 1 receptor (AT1 receptor) (from UniProt P30556) F1.48A; L1.52A; I1.57A
response [2]: 0.065 ΔBRET

YFP-tagged WT angiotensin II type 1 receptor (AT1 receptor) (from UniProt P30556) F7.55W
response [3]: 0.09 ΔBRET

YFP-tagged WT angiotensin II type 1 receptor (AT1 receptor) (from UniProt P30556) F8.54W
response [3]: 0.26 ΔBRET

YFP-tagged WT angiotensin II type 1 receptor (AT1 receptor) (from UniProt P30556) G1.49L
response [3]: 0.05 ΔBRET

YFP-tagged WT angiotensin II type 1 receptor (AT1 receptor) (from UniProt P30556) K8.49A; F8.50A; K8.51A; Y8.53A; F8.54A
response [2]: 0.006 ΔBRET

YFP-tagged WT angiotensin II type 1 receptor (AT1 receptor) (from UniProt P30556) N3.35A
response [1]: 0.12 ΔBRET

YFP-tagged WT angiotensin II type 1 receptor (AT1 receptor) (from UniProt P30556) N7.49A
response [4]: 0.25 ΔBRET

YFP-tagged WT angiotensin II type 1 receptor (AT1 receptor) (from UniProt P30556) N7.49A; P7.50A; F7.55A
response [2]: 0.006 ΔBRET

YFP-tagged WT angiotensin II type 1 receptor (AT1 receptor) (from UniProt P30556) Y7.53A
response [4]: 0.055 ΔBRET

YFP-tagged WT angiotensin II type 1 receptor (AT1 receptor) (from UniProt P30556) Y7.53I
response [1]: 0.41 ΔBRET
